From patent publication US20030199671A1 (published 2003)
fluorescein = fluorescein label attached at the ε-amino group of the C-terminal lysine

B1: DX252 (peptide)
peptide: Ac-GDDDHCYWFREWFNSECPHGEPGPEGGGK-NH2
modifications: not fully specified (bridges); printed as Ac-GDDDHCYWFREWFNSECPHGEPGPEGGGK-NH2; cysteine pairing not given here; also: fluorescein-labelled form in anisotropy assays, place not given here
notes: Fluorescein-labelled in anisotropy assays; immobilised in batch/column assays
B2: DX254 (peptide)
peptide: Ac-AGYYWCNYWGLCPDQGTPGPEGGGK-NH2
modifications: not fully specified (bridges); printed as Ac-AGYYWCNYWGLCPDQGTPGPEGGGK-NH2; cysteine pairing not given here; also: fluorescein-labelled form in anisotropy assays, place not given here
notes: Fluorescein-labelled in anisotropy assays; immobilised in batch assays
B3: DX301 (peptide)
peptide: Ac-GDRRACSRDWSGALVWCAGHEPGPEGGGK(fluorescein)-NH2
modifications: not fully specified (bridges); printed as Ac-GDRRACSRDWSGALVWCAGHEPGPEGGGK-NH2; cysteine pairing not given here
notes: also called fluoresceinated DX253
B4: DX300 (peptide)
peptide: Ac-AGKYWCSFWGLQCKTGTPGPEGGGK(fluorescein)-NH2
modifications: not fully specified (bridges); printed as Ac-AGKYWCSFWGLQCKTGTPGPEGGGK-NH2; cysteine pairing not given here
notes: also called fluoresceinated DX250

Legend:
human IgG1 [1] = biological target: T1, human IgG1 (human, UniProt P01857-1 1-330 = IgG part); test: fluorescence anisotropy; pH 7.4 PBS
T1 construct: Calbiochem; human plasma IgG1 in anisotropy studies, myeloma-derived (cat. 400120) in batch/column studies; also called hIgG1
Procedure: (§1) All measurements were performed in 384 well microplates with 20 nM fluorescein-labeled peptide and various concentrations of the IgG isoform in a volume of between 10 and 20 μl using a Tecan Polarion fluorescence polarization plate reader. All binding buffers included 0.01% (v/v) Tween 20 to prevent peptide adsorption to the microplate. The binding mixture was equilibrated for 10 minutes in the microplate at 30° C. prior to performing the measurement.

human IgG2 [2] = biological target: T2, human IgG2 (human, UniProt P01859-1 1-326 = IgG part); test: fluorescence anisotropy; pH 7.4 PBS
T2 construct: Calbiochem; plasma IgG2 in anisotropy studies, myeloma-derived (cat. 400122) in batch/column studies; also called hIgG2
Procedure: as §1

human IgG3 [3] = biological target: T3, human IgG3 (human, UniProt P01860-1 1-377); test: fluorescence anisotropy; pH 7.4 PBS
T3 construct: Calbiochem; plasma IgG3 in anisotropy studies, myeloma-derived (cat. 400124) in batch/column studies; also called hIgG3
Procedure: as §1

human IgG1 [4] = biological target: T1, human IgG1; test: fluorescence anisotropy; pH 5.7, 0.01 M Tris-acetate
Procedure: as §1

human IgG3 [5] = biological target: T3, human IgG3; test: as above
Procedure: as §1

human IgG1 [6] = biological target: T1, human IgG1; test: fluorescence anisotropy; pH 7.4, 0.01 M Tris-HCl
Procedure: as §1

human IgG4 [7] = biological target: T4, human IgG4 (human, UniProt P01861-1 1-327 = IgG part); test: fluorescence anisotropy; pH 7.4, 0.01 M Tris-HCl
T4 construct: Calbiochem; plasma IgG4 in anisotropy studies, myeloma-derived (cat. 400126) in batch/column studies; also called hIgG4
Procedure: as §1

human IgG2 [8] = biological target: T2, human IgG2; test: fluorescence anisotropy; pH 7.4, 0.01 M Tris-HCl
Procedure: as §1

human IgG3 [9] = biological target: T3, human IgG3; test: fluorescence anisotropy; pH 7.4, 0.01 M Tris-HCl
Procedure: as §1

human IgG1 [10] = biological target: T1, human IgG1; test: batch binding, immobilised ligand
Procedure: (§2) IgG targets were diluted into 10 mM phosphate buffer containing 150 mM NaCl and 0.01% Tween 20, pH 7.2 (PBST) or 50 mM Tris buffer containing, 150 mM NaCl and 0.01% Tween-20, pH 7.5 (TBST). Batch (static) binding and elution studies were conducted in a 96-well assay filterplate (Millipore MultiScreen-HV, with 0.45 μm Durapore membrane, product no. MAHVN4510). The target was allowed to incubate with the resin for 1-1.5 hours with shaking at room temperature. Unbound target was collected by centrifugation of samples from the assay plate directly into a low-UV absorbing 96-well collection plate (Costar, product no. 3635 or Greiner, product no. 655801). The unbound target was then quantitated by reading the absorbance at 280 nm (normalized to 1 cm pathlength, 1.4 mg/ml A280 extinction coefficient) of the collection plate on a microplate spectrophotometer (Molecular Devices Corp., SPECTRAmax PLUS) against a buffer blank.
(§3) The percentage bound target was determined by subtracting the mass determined as unbound from the corresponding condition's control values (control non-filtered added directly to the collection plate and/or the negative control). The assay plate was washed (3×) with 200 μl of binding buffer by vacuum filtration followed by addition of 100 μl of various elution conditions (e.g.: 0.1 M sodium bicarbonate buffer, pH 8.5 and/or 0.1 M sodium citrate buffer, pH 4.0). After a 30-60 minute incubation with shaking at room temperature, the eluted target was collected by centrifugation of the assay plate into another collection plate and quantitated in a similar manner. Percent elution of total load was then determined to characterize elution recovery efficiency under various conditions.

human IgG4 [11] = biological target: T4, human IgG4; test: batch binding, immobilised ligand
Procedure: as §2, §3

human IgG2 [12] = biological target: T2, human IgG2; test: batch binding, immobilised ligand
Procedure: as §2, §3

human IgG3 [13] = biological target: T3, human IgG3; test: batch binding, immobilised ligand
Procedure: as §2, §3

human IgG1 [14] = biological target: T1, human IgG1; test: fluorescence anisotropy; pH 7.4 PBS (second value, unlabelled row)
Procedure: as §1

human IgG2 [15] = biological target: T2, human IgG2; test: as above
Procedure: as §1

[16] = biological target: T5, Human IgG Fc fragment isolated from plasma (human); test: fluorescence anisotropy; pH 8.0, 0.05 M Tris-HCl, 0.2 M NaCl
T5 construct: domain: Fc fragment; also called human Fc; Fc protein
Procedure: as §1

human IgG1 [17] = biological target: T1, human IgG1; test: fluorescence anisotropy; pH 9.3, 0.2 M NaCl
Procedure: as §1

human IgG1 [18] = biological target: T1, human IgG1; test: fluorescence anisotropy; pH 9.3, 0.01 M sodium bicarbonate
human IgG2 [19] = biological target: T2, human IgG2; test: as above
human IgG1 [20] = biological target: T1, human IgG1; test: fluorescence anisotropy; PBS
Procedure: (§4) Peptides were synthesized, fluorescein-labeled and HPLC purified as described above. Binding studies were performed using either a mixture of human plasma IgG isoforms (the Fc protein) or the individual human plasma IgG isoforms: IgG1, IgG2, IgG3, or IgG4.
(§5) Measurements were performed in 384-well microplates with 2 nM fluorescein-labeled peptide and a varied concentration of the IgG isoform target in a volume of 10 μl using a Tecan Polarion fluorescence polarization plate reader. The Fc binding buffer was 50 mM Tris-HCl, 200 mM NaCl, pH 8.0, 0.01% Tween 20. The IgG binding buffer was PBS with 0.01% Tween 20. The binding mixtures were equilibrated for 10 minutes in the microplate at 30° C. prior to performing the measurements.

human IgG4 [21] = biological target: T4, human IgG4; test: fluorescence anisotropy; PBS
Procedure: as §4, §5

human IgG2 [22] = biological target: T2, human IgG2; test: fluorescence anisotropy; PBS
Procedure: as §4, §5

[23] = biological target: T5, Human IgG Fc fragment isolated from …; test: fluorescence anisotropy; 50 mM Tris-HCl, 200 mM NaCl, pH 8.0
Procedure: as §4, §5

human IgG3 [24] = biological target: T3, human IgG3; test: fluorescence anisotropy; PBS
Procedure: as §4, §5

T1 sequence (P01857 other isoform, or with tags, fused parts or gaps): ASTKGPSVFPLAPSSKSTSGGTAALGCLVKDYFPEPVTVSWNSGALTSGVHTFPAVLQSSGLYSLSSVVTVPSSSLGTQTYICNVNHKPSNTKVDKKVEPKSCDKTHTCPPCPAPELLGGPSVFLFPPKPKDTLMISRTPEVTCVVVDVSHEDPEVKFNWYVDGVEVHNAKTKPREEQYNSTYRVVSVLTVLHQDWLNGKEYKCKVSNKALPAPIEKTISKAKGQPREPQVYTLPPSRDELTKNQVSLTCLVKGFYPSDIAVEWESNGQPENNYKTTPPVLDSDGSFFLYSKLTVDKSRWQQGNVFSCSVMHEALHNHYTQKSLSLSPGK
T3 sequence (P01860 other isoform, or with tags, fused parts or gaps): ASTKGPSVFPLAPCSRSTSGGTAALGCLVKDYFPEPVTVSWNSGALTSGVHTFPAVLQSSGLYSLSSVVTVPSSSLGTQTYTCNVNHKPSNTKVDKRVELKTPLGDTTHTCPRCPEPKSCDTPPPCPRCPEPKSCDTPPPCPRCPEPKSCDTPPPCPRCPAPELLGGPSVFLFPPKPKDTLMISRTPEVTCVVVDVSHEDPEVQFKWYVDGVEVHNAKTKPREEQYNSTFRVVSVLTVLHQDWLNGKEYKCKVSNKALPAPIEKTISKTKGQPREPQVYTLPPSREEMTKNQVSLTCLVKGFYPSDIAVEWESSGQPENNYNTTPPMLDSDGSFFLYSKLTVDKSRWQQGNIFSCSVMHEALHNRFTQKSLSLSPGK
T4 sequence (P01861 other isoform, or with tags, fused parts or gaps): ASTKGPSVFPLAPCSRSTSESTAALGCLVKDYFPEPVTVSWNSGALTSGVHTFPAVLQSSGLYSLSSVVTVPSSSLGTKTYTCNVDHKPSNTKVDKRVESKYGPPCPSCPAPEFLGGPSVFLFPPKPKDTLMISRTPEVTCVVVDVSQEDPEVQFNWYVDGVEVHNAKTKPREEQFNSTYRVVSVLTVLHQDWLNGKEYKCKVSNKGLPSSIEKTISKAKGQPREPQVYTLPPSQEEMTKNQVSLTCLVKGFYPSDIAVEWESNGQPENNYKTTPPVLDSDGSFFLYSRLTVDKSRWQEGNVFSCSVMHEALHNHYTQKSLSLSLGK
T2 sequence (P01859 other isoform, or with tags, fused parts or gaps): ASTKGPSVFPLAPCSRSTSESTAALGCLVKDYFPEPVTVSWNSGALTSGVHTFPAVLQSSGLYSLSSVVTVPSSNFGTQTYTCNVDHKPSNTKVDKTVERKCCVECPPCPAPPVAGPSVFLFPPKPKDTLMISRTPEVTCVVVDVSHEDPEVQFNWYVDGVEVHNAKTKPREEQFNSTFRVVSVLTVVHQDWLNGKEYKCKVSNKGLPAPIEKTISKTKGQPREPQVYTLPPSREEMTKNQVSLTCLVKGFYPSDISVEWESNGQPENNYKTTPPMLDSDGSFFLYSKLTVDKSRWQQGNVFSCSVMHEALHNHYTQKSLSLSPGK

| Binder | Kd (human IgG1 [1]) [nM] | Kd (human IgG2 [2]) [nM] | Kd (human IgG3 [3]) [nM] | Kd (human IgG1 [4]) [nM] | Kd (human IgG3 [5]) [nM] | Kd (human IgG4 [7]) [nM] | Kd (human IgG2 [8]) [nM] | Kd (human IgG1 [14]) [nM] | Kd [16] [nM] | other results |
| --- | --- | --- | --- | --- | --- | --- | --- | --- | --- | --- |
| B1 | 1900 | 3600 | 2700 | 100 | 60 | 3200 | 3400 | 2900 | 5100 | Kd (human IgG1 [6]): 2100 nM; Kd (human IgG3 [9]): 2300 nM; bdg % (of Total Load) (human IgG1 [10]): 37%; bdg % (of Total Load) (human IgG4 [11]): 14%; bdg % (of Total Load) (human IgG2 [12]): 37%; bdg % (of Total Load) (human IgG3 [13]): 44%; Kd (human IgG2 [15]): 3000 nM |
| B2 | 140 | 1100 | 3000 | 90 | 300 | 2900 | 2000 | 400 | 1600 | Kd (human IgG1 [17]): 600 nM; Kd (human IgG1 [18]): 400 nM; Kd (human IgG2 [19]): 2000 nM |
| B3 |  |  |  |  |  |  |  |  |  | Kd (human IgG1 [20]): 3600 nM; Kd (human IgG4 [21]): 9700 nM; Kd (human IgG2 [22]): 2300 nM; Kd [23]: 6800 nM |
| B4 |  |  |  |  |  |  |  |  |  | Kd (human IgG3 [24]): 4100 nM |
